# Laboratory results from the DeepSol protein solubility set.
# Experiment: soluble on expression in E. coli; label from the status in PepcDB or PDB records
row,Sequence,soluble on expression in E. coli
1,MSLRILVIEDEISLNKTIIDNLNEFGYQTDSSENFKDGEYFIGIRHYDLVLANWTLPDGDGAELVNTIKHKSPRTSVMIMSSKTDKETEIKALKAGADDFVKKPLDFDILLARIEARLRLGGTNVIKIEDLVIDPDEEKITYKGQDIELKGKPFEVLTHLARHSDQIVSKEQLLDAIWEEPELVTPNVIEVAINQIRQKMDKPLNISTIETVRRRGYRFCFPKKSEGHHHHHH,soluble
2,MTIPFDHWPEWPQHSDRTRRKIEEVFQSNRWAISGYWTGEESMERKFAKAFADFNGVPYCVPTTSGSTALMLALEALGIGEGDEVIVPSLTWIATATAVLNVNALPVFVDVEADTYCIDPQLIKSAITDKTKAIIPVHLFGSMANMDEINEIAQEHNLFVIEDCAQSHGSVWNNQRAGTIGDIGAFSCQQGKVLTAGEGGIIVTKNPRLFELIQQLRADSRVYCDDSSELMHGDMQLVKKGDIQGSNYCLSEFQSAILLDQLQELDDKNAIREKNAMFLNDALSKIDGIKVMKRPPQVSRQTYYGYVFRFDPVKFGGLNADQFCEILREKLNMGTFYLHPPYLPVHKNPLFCPWTKNRYLKSVRKTEAYWRGLHYPVSERASGQSIVIHHAILLAEPSHLSLLVDAVAELARKFCVTH,soluble
3,MALSKRELDELKPWIEKTVKRVLGFSEPTVVTAALNCVGKGMDKKKAADHLKPFLDDSTLRFVDKLFEAVEEGRSSRHS,soluble
4,MNRLQGMELFVEVARTLSFGRAAENLAIPKSTLSRQVAELERSVGLRLLSRTTRRVELTEAGQLYFERCQRIVAEARIAHEELQNLVETPSGPLRVNMPADFGTDFLSEAFTEFSRRYPEVTFYLDLASPEHAERVFQTCDVSIEIGDLPDSTHIARLLGVLPAHLYASPDYLARHGEPQHPDDLPRHECIQFRAGTGRVTRWPLNSGERHVEITPGNRFSVNSVSMVRNLATLGAGIAILAPMGNVREDIESGRLKRILPDWLAGPFPVYAVTDTRMLPAKTRIFVEFLMERLSNKTLAGQNNPAFLNLR,not soluble
5,MKTVVIGAGLGGLLSAARLSKAGHEVEVFERLPITGGRFTNLSYKGFQLSSGAFHMLPNGPGGPLACFLKEVEASVNIVRSEMTTVRVPLKKGNPDYVKGFKDISFNDFPSLLSYKDRMKIALLIVSTRKNRPSGSSLQAWIKSQVSDEWLIKFADSFCGWALSLKSDEVPVEEVFEIIENMYRFGGTGIPEGGCKGIIDALETVISANGGKIHTGQEVSKILIENGKAAGIIADDRIHDADLVISNLGHAATAVLCSEALSKEADAAYFKMVGTLQPSAGIKICLAADEPLVGHTGVLLTPYTRRINGVNEVTQADPELAPPGKHLTMCHQYVAPENVKNLESEIEMGLEDLKEIFPGKRYEVLLIQSYHDEWPVNRAASGTDPGNETPFSGLYVVGDGAKGKGGIEVEGVALGVMSVMEKVLGLEHHHHHH,soluble
6,MSLAKLNVEVFADGADIEQMKAAYKNKEVDGFTTNPSLMAKAGVTDYKSFAEEAVKEIPDASISFEVFADDLETMEKEAEILKQYGDNVFVKIPVVNTKGESTIPLIKKLSADNVRLNVTAVYTIEQVKEITEAVTEGVPTYISVFAGRIADTGVDPLPLMKESVDVAHSKEGVKLLWASCRELFNVIQADEIGADIITCPADVVKKVNTNLGRDINELSVDTVKGFAKDIQSSGLSEGHHHHHH,soluble
7,MWKITENLYLAQLPMIVGPTSKQEFSKNDIKRVLTLTTEPISEKQKIGGVDYKFLHLLDMPDEPILDNAILETAVLYINEGVEKEENVGVHCLAAVSRSVSICAAYLMYKNQWPVEKALKMIESVRKTIGPNAGFLAQLKIWERSGMSFSADQYKNLKIDIPGITCVDSKTIWRQPVIDDQTKVRFKCRQCRKVIFNSDNIVHPLAEACQKYLIEPMAWLNVSGATCSVSHTCGAKLGTFIASGSKCNGCNKFVRQWIFINRTKLDKVEIAT,not soluble
8,MAEDIEEILAEIDGSQIEEYQKFFDAFDRGKQGYIMATQIGQIMHGMEQDFDEKTLRKLIRKFDADGSGKLEFDEFCALVYTVANTVDKETLEKELREAFRLFDKEGNGYISRPTLKALLKEIADDLTDQQLEEAVDEIDEDGSGKIEFEEFWELMAGESD,not soluble
9,MGSDKIHHHHHHSCENEFDVSDKADSLISVTVNTLNNQAAYNVGETAQAELWIQRGGLKDASGKVQFVVDPLLLDSLNQEDKTNYELLPENCYEMTNTEFTVDKNELCGYITYHPEKILALSAYNETKYVLPLRLISNDLAINPARNTSFLAFTILEPIVHISNAGVYNINPDLTSTMDIQIGVPFTNKWDILCNLTEDLSLIDEYNQINKVNFTLLPENAYTAPESVTLQEGVSQITASYQLKNNLVPGNYILPIKIGSITASQGGVPNNSLVIDEESNVLFCIVKEGNKINKSGWEVIECSSEHAGNEATYMIDDNESTYWHCKFKNEAGSSVPPFHFIIDMKKEITIAQIDLLNRGDGAANNIKWVEFYASNNNSEWDKIGAGDFNDEGTRATFRYYVKSTKARYLKLIIPEGYGNNCPPAAIRELTVYGLEGNN,not soluble
10,MGSDKIHHHHHHMEWLEQLLGKEWSLVPAGGVTGDAYIAQNGQQKLFLKRNTSPFLAVLSAEGIVPKLLWTRRVTNGDVISAQKWLPGQKLEPEDMKLERVAKLLKKIHSSKALVQMIQRLGKQPLHAQELLQQLQLVLRGDIRDEETIQQGLQYLMDSLKDIEYNEFVVCHCDVNHNNWLLSDEDELFLIDWDGAVIADPALDLGMLLYWYIPRQEWSEWLGYYDIEMDESLLKRMRWYVIAQTILSIQWHTTKKQQAEAEYWHQYLQQLLASE,not soluble
11,MKEVMLFPLTSVVLPEGKMNLRIFEPRYKRMVKECSLQNVGFGVCLVGSEGDPKDVGNVSSIGTLVRIVDFETLSDGLLGITVAGEKRFVIKRVRADSDGLRHAEVEWLDNWQTPSQQLDFGYLSQQLAQVYEQFPQLGTLYQHRFYDDPIWVTQRWLELLPLDSHLFESLVGAQDCRPALRFLNQAIEAPSNKEARILEHHHHHH,soluble
12,MSPKVTKEHKDKRQAEILEAAKTVFKRKGFELTTMKDVVEESGFSRGGVYLYFSSTEEMFRRIIETGLDEGLRKLDKSAEHQSVWASISSYLDELTEGLRDVADTLAPVQFEYLVTAWRNEERRQYLEKRYDLFVERFSRLLQKGIDQGEFQPVQPLATIAKFFLNMNDGIIQNALYFDEEKADVSGLAESAKLYLKTVLQADEK,soluble
13,MDYEKTLLMPKTDFPMRGGLPNKEPQIQEKWDAEDQYHKALEKNKGNETFILHDGPPYANGNLHMGHALNKILKDFIVRYKTMQGFYAPYVPGWDTHGLPIEQALTKKGVDRKKMSTAEFREKCKEFALEQIELQKKDFRRLGVRGDFNDPYITLKPEYEAAQIRIFGEMADKGLIYKGKKPVYWSPSSESSLAEAEIEYHDKRSASIYVAFNVKDDKGVVDADAKFIIWTTTPWTIPSNVAITVHPELKYGQYNVNGEKYIIAEALSDAVAEALDWDKASIKLEKEYTGKELEWVVAQHPFLDRESLVINGDHVTTDAGTGCVHTAPGHGEDDYIVGQQYELPVISPIDDKGVFTEEGGQFEGMFYDKANKAVTDLLTEKGALLKLDFITHSYPHDWRTKKPVIFRATPQWFASISKVRQDILDAIENTNFKVNWGKTRIYNMVRDRGEWVISRQRVWGVPLPVFYAENGEIIMTKETVNHVADLFAEHGSNIWFEREAKDLLPEGFTHPGSPNGTFTKETDIMDVWFDSGSSHRGVLETRPELSFPADMYLEGSDQYRGWFNSSITTSVATRGVSPYKFLLSHGFVMDGEGKKMSKSLGNVIVPDQVVKQKGADIARLWVSSTDYLADVRISDEILKQTSDDYRKIRNTLRFMLGNINDFNPDTDSIPESELLEVDRYLLNRLREFTASTINNYENFDYLNIYQEVQNFINVELSNFYLDYGKDILYIEQRDSHIRRSMQTVLYQILVDMTKLLAPILVHTAEEVWSHTPHVKEESVHLADMPKVVEVDQALLDKWRTFMNLRDDVNRALETARNEKVIGKSLEAKVTIASNDKFNASEFLTSFDALHQLFIVSQVKVVDKLDDQATAYEHGDIVIEHADGEKCERCWNYSEDLGAVDELTHLCPRCQQVVKSLV,soluble
14,MSLKTTFLEFEQPIAELEAKIEELRFVQDDSAVDISEEISRLAAKSQQLTKDLYATLSPWQVAQIARHPQRPYTLDYVREIFTDFHELHGDRTFADDLSIVGGLARFNGQPCMVIGHQKGRDTKERALRNFGMSKPEGYRKAKRLMELADKFGLPIFTFVDTPGAFPGIEAEERGQSEAIGHNLFVMAGLKVPLIATIIGEGGSGGALAIAVGDSVIMLQFATYAVISPEGCASILWKTAEKAPEAAEALGLTAHRLKALGLIDKIVNEPLGGAHRDPKAMATMLKRALAESLRQFQGMKTSELQARRHERLMAYGKFKETGSNEGHHHHHH,not soluble
15,GKRLSFEDGLVLYQTKDLPTLMRLANLVRERKHGHKTYFVHSIRVSQTNICYVGCTFCAFQRRFGEEGAWDWDVDEVVAWVKERYQPGLTEIHLTAGHHPKRPFAYYLDLVRALKENFPGVQVKAWTAAEIHHFSKIARLPYREVLKALKEAGLDAMPGGGAEIFAERVRRKIARAKVSAEGWLEIHRTAHELGIPTNATMLYGHIETLEERLDHMDRLRRLQDETGGFMSFIPLAFQPDGNQLARELGKKEFTTGLDDLRNLAVARLYLDNFPHIKGYWATLTPELAQVSLDWGVTDVDGTLIEERIVHMAGSPTPQGLTKRELARIILMAGRIPVER,not soluble
16,MNAITPTPGIDKEAFDRAANAVRRLCGWHIFPIIEETITLDSPGDSLLVLPTKHLVEIINVTIDGTTYPLSDFRSSPDGLLVKRHGRFPRGIAMVTVTMKHGYEKPTEILGVINDMARRANESNLTQLNVGGISVGATNSATPQSSEWRIVDELRLGPLP,not soluble
17,MIIEFEEKLLDLIDAQVVNASSDELFAGGYLRGHISLSAAQCEEEGITELDVLKQRIEQSLEAARSELSPADRAIVAELWQQLAAQA,not soluble
18,SAEDELVEIVPNMNMEQLNFISGDFGRFIPQIPTKVPLWLAVALKRRGKCTFRPPGWMSVDNLTQILEAERESQSTFQALPFSYVEIARLLFDHARDDIPDMYMVRSLVEDIRDVRLHKLETNLGSFQGTSAVKISNVSAMEVNIVRPFVIRALEAFYKHDKPEADVDRDTRSSRQQRETNNEPRRPLRQR,soluble
19,MEEKVEFILEVRSIPVYGDEFSPRLRKFFPIDYEPVERVTVPTSKKADYAVMISSNLKPFSIKEGDYILISLDDEPQEGDLVAVLVKDFRITVGRVKERQEDIFVVEVGNEVGIYRCFIFPYLDQLHRSSFELSFNPYVLGKITAILRKKPAH,soluble
20,MTMVQVTLEVNGRQVAHEAPPRMHLGDFLRDQARLTGTHLGCEHGVCGACTVLVDGQPVRSCITYAVACEGRQVTTIEGYDGDPVMARLRAAFTKYHALQCGYCTPGMLTTSRDIVLRLPDADEARVRVELSGNLCRCTGYMGIVGAVMSVLRDLREQPDAAVQALRAAAADGRLPAPRGEQPIAFQPFTPSAPAAAQAAPRPAAAASPASGKGNQIVDAFTVPFPAAEVWAFMVDLPAVAACLPGAVIEETDGQRVKGKIAIKFGPMAAAFNGAARLERDEEAMRAVFRGAGQDSLSQSRATGDIAYQVEAVSENETRVKVDLQYALQGPLAQFSRSGLVQDFVRRMIADFGKNVTARLRQPGGEALPQAQFNPVAMFFSVLWMRVKRWFGRGGLEHHHHHH,not soluble
